Measurements taken from PMC7492729, “CsrA-Mediated Translational Activation of ymdA Expression in Escherichia coli”.

Assays:
Details in all cases: protein: recombinant; tags: His6 (C-terminal, as named CsrA-H6); chain copies: 2; label: 5'-32P
[1] = target: T1, CsrA-H6 (Escherichia coli, UniProt P69913 1-61); assay: EMSA; 10 mM MgCl2, 40 ng yeast tRNA; 10 mM Tris-HCl pH 7.5, 10 mM MgCl2, 100 mM KCl, 40 ng yeast tRNA per 10 ul, 7.5% glycerol, 0.1 mg/ml xylene cyanol, 0.1 nM RNA (2 nM RNA plus 1 ug acetylated BSA for footprint), 37 C 30 min
T1 sequence (P69913 whole entry): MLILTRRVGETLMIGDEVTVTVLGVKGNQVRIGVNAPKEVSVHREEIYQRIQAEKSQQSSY

[2] = target: T1, CsrA-H6; assay: RNase T1 footprinting; 10 mM MgCl2; BS1 and BS2 protected, BS* and SD GGA not; 10 mM Tris-HCl pH 7.5, 10 mM MgCl2, 100 mM KCl, 40 ng yeast tRNA per 10 ul, 7.5% glycerol, 0.1 mg/ml xylene cyanol, 0.1 nM RNA (2 nM RNA plus 1 ug acetylated BSA for footprint), 37 C 30 min
[3] = target: T1, CsrA-H6; assay: RNase T1 footprinting; 10 mM MgCl2; binds BS1 in absence of BS2; 10 mM Tris-HCl pH 7.5, 10 mM MgCl2, 100 mM KCl, 40 ng yeast tRNA per 10 ul, 7.5% glycerol, 0.1 mg/ml xylene cyanol, 0.1 nM RNA (2 nM RNA plus 1 ug acetylated BSA for footprint), 37 C 30 min

B1: ymdA leader RNA (EMSA) (structured_RNA)
RNA: AAGAUGAAUCUGGAGAGAAUGGUCUGCUGCGAAUCAGCCAACCUGAAAGUAUGGAUAACACAACCCUCAAGGAUGACUAAUCAUUGAGGAAAUAGAAUAAA
- Kd [1]: 48 ± 3 nM

B2: ymdA leader RNA (footprint) (structured_RNA)
RNA: GUCUUAAUUUGUUGAAAUAUCGAGCAUAAGAUGAAUCUGGAGAGAAUGGUCUGCUGCGAAUCAGCCAACCUGAAAGUAUGGAUAACACAACCCUCAAGGAUGACUAAUCAUUGAGGAAAUAGAAUAAA
- binding result [2]: binds

B3: ymdA leader RNA BS2 mutant (footprint) (structured_RNA)
RNA: GUCUUAAUUUGUUGAAAUAUCGAGCAUAAGAUGAAUCUGGAGAGAAUGGUCUGCUGCGAAUCAGCCAACCUGAAAGUAUGGAUAACACAACCCUCAAAGAUGACUAAUCAUUGAGGAAAUAGAAUAAA
- binding result [3]: binds
